Measured values reported in US20220204580A1 (AstraZeneca / MedImmune, published 2022).
Values belong to the binder of their own block, whether it stands above or below them. Numbered stars: 1 amine (or outer) side, 2 acyl side, 3 side chain; on linkers, the order of the positions; unused ones are H or OH. Bridge positions count the residues as written; N and C are the ends. Square brackets hold non-standard residues; d marks the D form. Side chains are listed from the residue outwards. Ends that are not written are not given here. * marks the point of attachment. C18 diacid = O=C(O)CCCCCCCCCCCCCCCCC(=O)*; γGlu = O=C(O)[C@H](CCC(=O)[*:2])N[*:1]; αMeF = C[C@](N)(Cc1ccccc1)C(=O)O; Aib = CC(C)(N)C(=O)O

What was measured:
[1] = target: T1, human amylin receptor (calcitonin receptor co-expressed with receptor activity modifying protein, RAMP3) (human, UniProt P30988 25-474; O60896 24-148); test: cell-based or functional assay
T1 sequence (looked up) 1: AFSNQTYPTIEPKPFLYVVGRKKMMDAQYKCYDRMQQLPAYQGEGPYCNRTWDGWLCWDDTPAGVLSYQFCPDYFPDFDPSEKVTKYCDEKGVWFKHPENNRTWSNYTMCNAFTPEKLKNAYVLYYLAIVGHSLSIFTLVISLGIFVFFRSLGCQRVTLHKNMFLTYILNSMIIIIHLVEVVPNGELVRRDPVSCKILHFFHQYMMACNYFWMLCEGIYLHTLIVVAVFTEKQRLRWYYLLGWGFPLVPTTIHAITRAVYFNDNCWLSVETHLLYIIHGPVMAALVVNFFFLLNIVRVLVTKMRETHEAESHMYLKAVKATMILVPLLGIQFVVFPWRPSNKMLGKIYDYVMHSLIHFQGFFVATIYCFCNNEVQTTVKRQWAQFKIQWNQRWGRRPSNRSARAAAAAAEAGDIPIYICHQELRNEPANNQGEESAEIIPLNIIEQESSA
T1 sequence (looked up) 2: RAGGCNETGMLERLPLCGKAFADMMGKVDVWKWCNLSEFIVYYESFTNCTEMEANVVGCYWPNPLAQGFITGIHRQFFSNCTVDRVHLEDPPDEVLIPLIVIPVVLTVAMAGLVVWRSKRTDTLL

[2] = target: T2, human calcitonin receptor (human, UniProt P30988 25-474); test: cell-based or functional assay
T2 sequence (looked up): T1 sequence (looked up) 1

EC50 (cAMP production) [1]: 0.942 nM
Ratio (EC50 hCTR / EC50 hAMYR3) [1]: 1
EC50 (cAMP production) [2]: 0.972 nM
B1: Peptide 98 (SEQ ID NO: 98) (peptide)
peptide: K([γGlu-C18 diacid])KCNTATCATQRLANFL[Aib]HSSNNFGPILPPT[Aib]VGSNTY-NH2
modifications: disulfide 3-8; N-terminus assumed
SMILES: CC[C@H](C)[C@H](NC(=O)[C@@H]1CCCN1C(=O)CNC(=O)[C@H](Cc1ccccc1)NC(=O)[C@H](CC(N)=O)NC(=O)[C@H](CC(N)=O)NC(=O)[C@H](CO)NC(=O)[C@H](CO)NC(=O)[C@H](Cc1c[nH]cn1)NC(=O)C(C)(C)NC(=O)[C@H](CC(C)C)NC(=O)[C@H](Cc1ccccc1)NC(=O)[C@H](CC(N)=O)NC(=O)[C@H](C)NC(=O)[C@H](CC(C)C)NC(=O)[C@H](CCCNC(=N)N)NC(=O)[C@H](CCC(N)=O)NC(=O)[C@@H](NC(=O)[C@H](C)NC(=O)[C@@H]1CSSC[C@H](NC(=O)[C@H](CCCCN)NC(=O)[C@@H](N)CCCCNC(=O)CC[C@H](NC(=O)CCCCCCCCCCCCCCCCC(=O)O)C(=O)O)C(=O)N[C@@H](CC(N)=O)C(=O)N[C@@H]([C@@H](C)O)C(=O)N[C@@H](C)C(=O)N[C@@H]([C@@H](C)O)C(=O)N1)[C@@H](C)O)C(=O)N[C@@H](CC(C)C)C(=O)N1CCC[C@H]1C(=O)N1CCC[C@H]1C(=O)N[C@H](C(=O)NC(C)(C)C(=O)N[C@H](C(=O)NCC(=O)N[C@@H](CO)C(=O)N[C@@H](CC(N)=O)C(=O)N[C@H](C(=O)N[C@@H](Cc1ccc(O)cc1)C(N)=O)[C@@H](C)O)C(C)C)[C@@H](C)O

EC50 (cAMP production) [1]: 0.177 nM
Ratio (EC50 hCTR / EC50 hAMYR3) [1]: 21
EC50 (cAMP production) [2]: 3.64 nM
B2: Peptide 11 (SEQ ID NO: 11) (peptide)
peptide: K([γGlu-γGlu-C18 diacid])CNTATCATQRLAEFLRHSSNN[αMeF]GPILPPTNVGSNTY-NH2
modifications: disulfide 2-7; N-terminus assumed
SMILES: CC[C@H](C)[C@H](NC(=O)[C@@H]1CCCN1C(=O)CNC(=O)[C@](C)(Cc1ccccc1)NC(=O)[C@H](CC(N)=O)NC(=O)[C@H](CC(N)=O)NC(=O)[C@H](CO)NC(=O)[C@H](CO)NC(=O)[C@H](Cc1c[nH]cn1)NC(=O)[C@H](CCCNC(=N)N)NC(=O)[C@H](CC(C)C)NC(=O)[C@H](Cc1ccccc1)NC(=O)[C@H](CCC(=O)O)NC(=O)[C@H](C)NC(=O)[C@H](CC(C)C)NC(=O)[C@H](CCCNC(=N)N)NC(=O)[C@H](CCC(N)=O)NC(=O)[C@@H](NC(=O)[C@H](C)NC(=O)[C@@H]1CSSC[C@H](NC(=O)[C@@H](N)CCCCNC(=O)CC[C@H](NC(=O)CC[C@H](NC(=O)CCCCCCCCCCCCCCCCC(=O)O)C(=O)O)C(=O)O)C(=O)N[C@@H](CC(N)=O)C(=O)N[C@@H]([C@@H](C)O)C(=O)N[C@@H](C)C(=O)N[C@@H]([C@@H](C)O)C(=O)N1)[C@@H](C)O)C(=O)N[C@@H](CC(C)C)C(=O)N1CCC[C@H]1C(=O)N1CCC[C@H]1C(=O)N[C@H](C(=O)N[C@@H](CC(N)=O)C(=O)N[C@H](C(=O)NCC(=O)N[C@@H](CO)C(=O)N[C@@H](CC(N)=O)C(=O)N[C@H](C(=O)N[C@@H](Cc1ccc(O)cc1)C(N)=O)[C@@H](C)O)C(C)C)[C@@H](C)O

EC50 (cAMP production) [1]: 3.8 nM
Ratio (EC50 hCTR / EC50 hAMYR3) [1]: 0.5
EC50 (cAMP production) [2]: 1.82 nM
B3: Peptide 99 (SEQ ID NO: 99) (peptide)
peptide: K([γGlu-C18 diacid])KCNTATCATQRLANFL[Aib]HSSNNFGPILPPTN[Aib]GSNTY-NH2
modifications: disulfide 3-8; N-terminus assumed
SMILES: CC[C@H](C)[C@H](NC(=O)[C@@H]1CCCN1C(=O)CNC(=O)[C@H](Cc1ccccc1)NC(=O)[C@H](CC(N)=O)NC(=O)[C@H](CC(N)=O)NC(=O)[C@H](CO)NC(=O)[C@H](CO)NC(=O)[C@H](Cc1c[nH]cn1)NC(=O)C(C)(C)NC(=O)[C@H](CC(C)C)NC(=O)[C@H](Cc1ccccc1)NC(=O)[C@H](CC(N)=O)NC(=O)[C@H](C)NC(=O)[C@H](CC(C)C)NC(=O)[C@H](CCCNC(=N)N)NC(=O)[C@H](CCC(N)=O)NC(=O)[C@@H](NC(=O)[C@H](C)NC(=O)[C@@H]1CSSC[C@H](NC(=O)[C@H](CCCCN)NC(=O)[C@@H](N)CCCCNC(=O)CC[C@H](NC(=O)CCCCCCCCCCCCCCCCC(=O)O)C(=O)O)C(=O)N[C@@H](CC(N)=O)C(=O)N[C@@H]([C@@H](C)O)C(=O)N[C@@H](C)C(=O)N[C@@H]([C@@H](C)O)C(=O)N1)[C@@H](C)O)C(=O)N[C@@H](CC(C)C)C(=O)N1CCC[C@H]1C(=O)N1CCC[C@H]1C(=O)N[C@H](C(=O)N[C@@H](CC(N)=O)C(=O)NC(C)(C)C(=O)NCC(=O)N[C@@H](CO)C(=O)N[C@@H](CC(N)=O)C(=O)N[C@H](C(=O)N[C@@H](Cc1ccc(O)cc1)C(N)=O)[C@@H](C)O)[C@@H](C)O

EC50 (cAMP production) [1]: 0.684 nM
Ratio (EC50 hCTR / EC50 hAMYR3) [1]: 1
EC50 (cAMP production) [2]: 0.944 nM
B4: Peptide 97 (SEQ ID NO: 97) (peptide)
peptide: K([γGlu-C18 diacid])KCNTATCATQRLANFL[Aib]HSSNNFGPILP[Aib]TNVGSNTY-NH2
modifications: disulfide 3-8; N-terminus assumed
SMILES: CC[C@H](C)[C@H](NC(=O)[C@@H]1CCCN1C(=O)CNC(=O)[C@H](Cc1ccccc1)NC(=O)[C@H](CC(N)=O)NC(=O)[C@H](CC(N)=O)NC(=O)[C@H](CO)NC(=O)[C@H](CO)NC(=O)[C@H](Cc1c[nH]cn1)NC(=O)C(C)(C)NC(=O)[C@H](CC(C)C)NC(=O)[C@H](Cc1ccccc1)NC(=O)[C@H](CC(N)=O)NC(=O)[C@H](C)NC(=O)[C@H](CC(C)C)NC(=O)[C@H](CCCNC(=N)N)NC(=O)[C@H](CCC(N)=O)NC(=O)[C@@H](NC(=O)[C@H](C)NC(=O)[C@@H]1CSSC[C@H](NC(=O)[C@H](CCCCN)NC(=O)[C@@H](N)CCCCNC(=O)CC[C@H](NC(=O)CCCCCCCCCCCCCCCCC(=O)O)C(=O)O)C(=O)N[C@@H](CC(N)=O)C(=O)N[C@@H]([C@@H](C)O)C(=O)N[C@@H](C)C(=O)N[C@@H]([C@@H](C)O)C(=O)N1)[C@@H](C)O)C(=O)N[C@@H](CC(C)C)C(=O)N1CCC[C@H]1C(=O)NC(C)(C)C(=O)N[C@H](C(=O)N[C@@H](CC(N)=O)C(=O)N[C@H](C(=O)NCC(=O)N[C@@H](CO)C(=O)N[C@@H](CC(N)=O)C(=O)N[C@H](C(=O)N[C@@H](Cc1ccc(O)cc1)C(N)=O)[C@@H](C)O)C(C)C)[C@@H](C)O
